Results from article PMC10881500.

Key:
[1] = target: KFN (Mut3; HuJovi-1 VH T28K, Y32F, A96N), human IgG1 (human); test: SPR; Biacore T200; antibody as human IgG1 captured with an anti-human capture kit on CM5 to 200 RU; TRBC1 or TRBC2 as analyte, 150 s contact, 300 s dissociation, 30 μl/min, 25 °C, HBS-P+ pH 7.4; 1:1 Langmuir model
[2] = target: HuJovi-1 (humanized Jovi-1), human IgG1 (human); test: as above
Sequence of HuJovi-1 (humanized Jovi-1), human IgG1 (human) (heavy, as listed by the source, chain 1 of 2): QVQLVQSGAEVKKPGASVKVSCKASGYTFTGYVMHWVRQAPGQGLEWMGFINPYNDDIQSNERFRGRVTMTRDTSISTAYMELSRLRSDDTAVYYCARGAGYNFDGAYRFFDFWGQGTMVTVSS
Sequence of HuJovi-1 (humanized Jovi-1), human IgG1 (human) (light, as listed by the source, chain 2 of 2): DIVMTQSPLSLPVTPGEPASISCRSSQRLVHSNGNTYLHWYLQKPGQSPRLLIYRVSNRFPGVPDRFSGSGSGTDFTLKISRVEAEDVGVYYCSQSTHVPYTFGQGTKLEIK

Sequence of KFN (Mut3; HuJovi-1 VH T28K, Y32F, A96N), human IgG1 (human) (heavy, as listed by the source, chain 1 of 2): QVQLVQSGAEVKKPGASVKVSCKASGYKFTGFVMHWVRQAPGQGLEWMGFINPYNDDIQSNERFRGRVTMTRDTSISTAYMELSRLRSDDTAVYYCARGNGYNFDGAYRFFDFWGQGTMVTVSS
Sequence of KFN (Mut3; HuJovi-1 VH T28K, Y32F, A96N), human IgG1 (human) (light, as listed by the source, chain 2 of 2): as the sequence (light, as listed by the source, chain 2 of 2) above

Substance: Recombinant, purified TRBC1 (soluble αβ TCR with the β-chain constant domain TRBC1), SPR analyte
- Kd [1]: 1960 nM
- koff [1]: 0.155 s⁻¹

Substance: Recombinant, purified TRBC2 (soluble αβ TCR with the β-chain constant domain TRBC2), SPR analyte
- Kd [2]: 12.9 µM
- koff [2]: 1.29 s⁻¹
